Target: mCerulean3-BaxΔCTS
Experiment: FRET or BRET; quantitative fast FLIM-FRET (qF3) in live HCT116 DKO cells stably expressing the donor ^CBaxΔCTS (1 to 3 µM) and transiently the Venus acceptor (0 to 50 µM); 10 µM Q-VD-OPH; fit to a Hill equation with h = 1; apparent Kd

Substance	Kd [µM]
Venus-tBid (domain or fragment)	16.3
Venus-tBid(Nes2-BH3 C-ter) chimera (from UniProt P70444 1-81; P70444 101-195)	17

Source: PMC12134178
